Experimental data published in patent publication US20220326223.

Target: human APP (695 amino acid isoform), P05067

B1: human ADAMTS4 (A disintegrin and metalloproteinase with thrombospondin motifs 4) (protein)
chain: FASLSRFVETLVVADDKMAAFHGAGLKRYLLTVMAAAAKAFKHPSIRNPVSLVVTRLVILGSGEEGPQVGPSAAQTLRSFCAWQRGLNTPEDSDPDHFDTAILFTRQDLCGVSTCDTLGMADVGTVCDPARSCAIVEDDGLQSAFTAAHELGHVFNMLHDNSKPCISLNGPLSTSRHVMAPVMAHVDPEEPWSPCSARFITDFLDNGYGHCLLDKPEAPLHLPVTFPGKDYDADRQCQLTFGPDSRHCPQLPPPCAALWCSGHLNGHAMCQTKHSPWADGTPCGPAQACMGGRCLHMDQLQDFNIPQAGGWGPWGPWGDCSRTCGGGVQFSSRDCTRPVPRNGGKYCEGRRTRFRSCNTEDCPTGSALTFREEQCAAYNHRTDLFKSFPGPMDWVPRYTGVAPQDQCKLTCQARALGYYYVLEPRVVDGTPCSPDSSSVCVQGRCIHAGCDRIIGSKKKFDKCMVCGGDGSGCSKQSGSFRKFRYGYNNVVTIPAGATHILVRQQGNAGHRSIYLALKLPDGSYALNGEYTLMPSPTDVVLPGAVSLRYSGATAASETLSGHGPLAQPLTLQVLVAGNPQDTRLRYSFFVPRPTPSTPRPTPQDWLHRRAQILEILRRRPWAGRK
  production amounts of APP669-711 (Aβ(-3-40)) and APP669-709 (Aβ(-3-38)) in culture supernatant (IP-MS), ADAMTS4 vector:empty vector 10:1 in APP stable HEK: tended to be rather slightly increased
